Source: patent EP3124498A1 (Oilcrops Research Institute of Chinese Academy of …, dated 2017)

Molecular target: T1, BSA (UniProt P02769 25-607)
T1 construct: also called carrier protein BSA; 3% BSA
Assay: phage ELISA on coated plates, detection with HRP/anti-M13, OD450

T1 sequence (P02769 25-607 limits assumed): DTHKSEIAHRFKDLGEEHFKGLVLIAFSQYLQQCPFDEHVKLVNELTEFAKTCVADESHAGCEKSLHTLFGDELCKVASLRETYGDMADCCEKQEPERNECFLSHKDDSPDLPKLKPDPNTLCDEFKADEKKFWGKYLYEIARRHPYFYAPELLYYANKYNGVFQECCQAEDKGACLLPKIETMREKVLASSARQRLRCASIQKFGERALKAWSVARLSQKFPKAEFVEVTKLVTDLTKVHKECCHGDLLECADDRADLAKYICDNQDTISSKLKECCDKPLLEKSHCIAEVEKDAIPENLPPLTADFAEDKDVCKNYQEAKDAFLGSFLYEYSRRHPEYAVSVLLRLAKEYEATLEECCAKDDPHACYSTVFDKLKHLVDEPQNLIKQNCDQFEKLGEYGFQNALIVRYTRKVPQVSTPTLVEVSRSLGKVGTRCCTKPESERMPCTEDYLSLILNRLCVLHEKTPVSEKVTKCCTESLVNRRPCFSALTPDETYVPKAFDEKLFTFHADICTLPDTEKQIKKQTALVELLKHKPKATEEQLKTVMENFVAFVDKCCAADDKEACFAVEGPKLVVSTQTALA

B1: aflatoxin B1 nanobody 2014AFB-G15 (VHH)
VHH: QLQLVESGGGLVQAGGSLRLSCAASGRTFSSYAMGWFRQAPGKEREFVAAISWSGGSTYYTDSVKGRFTINRDNAKNTVYLQMNSLKPEDTAVYYCAAGFSGNYYRTPDYWGQGTQVTVSS
notes: also called antibody 2014AFB-G15
binding result: no binding (tested: wells coated with 3% BSA)
